Measured values from the supplement of paper PMC9112550, “Optimization of the antimicrobial peptide Bac7 by deep mutational scanning” (BMC Biology, 2022).

tested on: Escherichia coli TOP10; experiment: shrunken log2 fold change of peptide-encoding DNA abundance (4.5 h post-induction vs induction); higher = less antimicrobial activity (less host growth inhibition); details: time post-induction: 4.5 h; library: site-saturation at positions 5, 18, 19, 20
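Also: peptides expressed intracellularly from a pBAD plasmid library in pooled LB shake-flask culture, induced with 0.3% L-arabinose, DNA abundance read by NGS, three biological replicates, DESeq2 with apeglm shrinkage.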

Row | Sequence | shrunken log2 fold change
1 | RRIRRRPPRLPRPRPRPLPRPRP | 0.748
2 | RRIRFRPPRLPRPRPRPNFKPRP | -0.222
3 | RRIRHRPPRLPRPRPRPGQDPRP | 0.0217
4 | RRIRERPPRLPRPRPRPEVPPRP | -0.00233
5 | RRIRRRPPRLPRPRPRPFRKPRP | -0.00961
6 | RRIRTRPPRLPRPRPRPDGPPRP | 0.126
7 | RRIRVRPPRLPRPRPRPFWLPRP | 0.234
8 | RRIRGRPPRLPRPRPRPRIMPRP | 0.506
9 | RRIRCRPPRLPRPRPRPKIDPRP | -0.0573
10 | RRIRYRPPRLPRPRPRPPEMPRP | 0.123
11 | RRIRPRPPRLPRPRPRPCKTPRP | 0.106
12 | RRIRKRPPRLPRPRPRPFTKPRP | -0.0833
13 | RRIRNRPPRLPRPRPRPASWPRP | 0.369
14 | RRIRPRPPRLPRPRPRPCHGPRP | -0.0271
15 | RRIRFRPPRLPRPRPRPALRPRP | 0.276
16 | RRIRNRPPRLPRPRPRPGAEPRP | 0.374
17 | RRIRNRPPRLPRPRPRPFIMPRP | -0.889
18 | RRIRCRPPRLPRPRPRPIWPPRP | 0.415
19 | RRIRHRPPRLPRPRPRPMGAPRP | 0.0492
20 | RRIRFRPPRLPRPRPRPEGWPRP | 0.807
21 | RRIRWRPPRLPRPRPRPGVRPRP | 0.304
22 | RRIRMRPPRLPRPRPRPHFKPRP | -0.0841
23 | RRIRARPPRLPRPRPRPQVHPRP | 0.102
24 | RRIRNRPPRLPRPRPRPPTSPRP | 0.298
25 | RRIRERPPRLPRPRPRPMKSPRP | -0.163

Row | Sequence | shrunken log2 fold change
26 | RRIRTRPPRLPRPRPRPALEPRP | 0.122
27 | RRIRIRPPRLPRPRPRPDYDPRP | -0.00137
28 | RRIRVRPPRLPRPRPRPAAAPRP | 0.69
29 | RRIRARPPRLPRPRPRPWWAPRP | 0.289
30 | RRIRCRPPRLPRPRPRPGQDPRP | -0.0365
31 | RRIRPRPPRLPRPRPRPYIAPRP | -0.395
32 | RRIRKRPPRLPRPRPRPQIKPRP | 0.0963
33 | RRIRYRPPRLPRPRPRPWYIPRP | -0.00804
34 | RRIRWRPPRLPRPRPRPEIRPRP | 0.00534
35 | RRIRERPPRLPRPRPRPERGPRP | 0.119
36 | RRIRCRPPRLPRPRPRPSAWPRP | 0.0978
37 | RRIRLRPPRLPRPRPRPCWIPRP | -0.241
38 | RRIRCRPPRLPRPRPRPWQPPRP | 0.0636
39 | RRIRRRPPRLPRPRPRPVPSPRP | 0.488
40 | RRIRFRPPRLPRPRPRPSSKPRP | -0.32
41 | RRIRRRPPRLPRPRPRPPVYPRP | 0.32
42 | RRIRCRPPRLPRPRPRPDKFPRP | -0.296
43 | RRIRDRPPRLPRPRPRPMLIPRP | -0.0943
44 | RRIRPRPPRLPRPRPRPAMLPRP | 0.233
45 | RRIRGRPPRLPRPRPRPFCCPRP | 0.522
46 | RRIRDRPPRLPRPRPRPQRGPRP | 0.0499
47 | RRIRSRPPRLPRPRPRPWDIPRP | -0.211
48 | RRIRQRPPRLPRPRPRPKAGPRP | 0.0875
49 | RRIRKRPPRLPRPRPRPSYLPRP | -0.144
50 | RRIRERPPRLPRPRPRPRAQPRP | 0.22

Row | Sequence | shrunken log2 fold change
51 | RRIRTRPPRLPRPRPRPGLSPRP | 0.0345
52 | RRIRTRPPRLPRPRPRPSNEPRP | -0.34
53 | RRIRYRPPRLPRPRPRPMQIPRP | -6.27e-05
54 | RRIRYRPPRLPRPRPRPVSEPRP | -0.00125
55 | RRIRYRPPRLPRPRPRPNGDPRP | -0.112
56 | RRIRKRPPRLPRPRPRPVVGPRP | 0.686
57 | RRIRMRPPRLPRPRPRPMYFPRP | 0.178
58 | RRIRTRPPRLPRPRPRPIMSPRP | -0.152
59 | RRIRGRPPRLPRPRPRPSYWPRP | 0.119
60 | RRIRERPPRLPRPRPRPGPRPRP | 0.537
61 | RRIRYRPPRLPRPRPRPTHTPRP | 0.049
62 | RRIRERPPRLPRPRPRPCVWPRP | 0.0291
63 | RRIRQRPPRLPRPRPRPVSFPRP | -0.309
64 | RRIRERPPRLPRPRPRPMIPPRP | -0.0272
65 | RRIRWRPPRLPRPRPRPLHCPRP | -0.444
66 | RRIRERPPRLPRPRPRPEHGPRP | 0.174
67 | RRIRFRPPRLPRPRPRPTGNPRP | -0.245
68 | RRIRKRPPRLPRPRPRPEGGPRP | 0.543
69 | RRIRWRPPRLPRPRPRPFQQPRP | -0.0106
70 | RRIRFRPPRLPRPRPRPYPNPRP | -0.152
71 | RRIRMRPPRLPRPRPRPLFEPRP | 0.633
72 | RRIRWRPPRLPRPRPRPSFAPRP | 0.28
73 | RRIRERPPRLPRPRPRPLGCPRP | -0.166
74 | RRIRRRPPRLPRPRPRPVYWPRP | 0.303
75 | RRIRWRPPRLPRPRPRPCCRPRP | 0.174

Row | Sequence | shrunken log2 fold change
76 | RRIRERPPRLPRPRPRPPCKPRP | -0.208
77 | RRIRKRPPRLPRPRPRPRNRPRP | -0.139
78 | RRIRFRPPRLPRPRPRPTTWPRP | 0.0564
79 | RRIRRRPPRLPRPRPRPSCGPRP | 0.0769
80 | RRIRMRPPRLPRPRPRPTPLPRP | 1.01
81 | RRIRRRPPRLPRPRPRPEMDPRP | 0.186
82 | RRIRWRPPRLPRPRPRPSIDPRP | 0.452
83 | RRIRWRPPRLPRPRPRPGSPPRP | 0.0119
84 | RRIRCRPPRLPRPRPRPFKHPRP | -0.272
85 | RRIRHRPPRLPRPRPRPIMEPRP | -0.545
86 | RRIRSRPPRLPRPRPRPDYRPRP | -0.0371
87 | RRIRDRPPRLPRPRPRPNDFPRP | 0.239
88 | RRIRKRPPRLPRPRPRPSDPPRP | 0.0131
89 | RRIRWRPPRLPRPRPRPCGRPRP | 0.376
90 | RRIRARPPRLPRPRPRPWRDPRP | 0.225
91 | RRIRGRPPRLPRPRPRPLWHPRP | 0.552
92 | RRIRLRPPRLPRPRPRPHVNPRP | -0.105
93 | RRIRVRPPRLPRPRPRPCHEPRP | -0.378
94 | RRIRPRPPRLPRPRPRPLKTPRP | -0.000587
95 | RRIRYRPPRLPRPRPRPKLKPRP | -0.0928
96 | RRIRQRPPRLPRPRPRPMHYPRP | -0.276
97 | RRIRDRPPRLPRPRPRPKNCPRP | -0.15
98 | RRIRYRPPRLPRPRPRPTHSPRP | -0.698
99 | RRIRSRPPRLPRPRPRPQKIPRP | -0.53
100 | RRIRYRPPRLPRPRPRPHWDPRP | -0.92

Row | Sequence | shrunken log2 fold change
101 | RRIRQRPPRLPRPRPRPWYAPRP | -0.134
102 | RRIRHRPPRLPRPRPRPRPMPRP | -0.00237
103 | RRIRTRPPRLPRPRPRPCWIPRP | -0.1
104 | RRIRIRPPRLPRPRPRPWEAPRP | 0.0112
105 | RRIRARPPRLPRPRPRPSCKPRP | -0.291
106 | RRIRIRPPRLPRPRPRPAGQPRP | 0.0455
107 | RRIRPRPPRLPRPRPRPESTPRP | 0.118
108 | RRIRKRPPRLPRPRPRPPYKPRP | -0.142
109 | RRIRARPPRLPRPRPRPFVKPRP | 0.0302
110 | RRIRIRPPRLPRPRPRPDFTPRP | -0.355
111 | RRIRFRPPRLPRPRPRPSFTPRP | 0.587
112 | RRIRVRPPRLPRPRPRPPQGPRP | 0.203
113 | RRIRVRPPRLPRPRPRPIWSPRP | 0.0334
114 | RRIRGRPPRLPRPRPRPSCMPRP | 0.336
115 | RRIRIRPPRLPRPRPRPADYPRP | -0.635
116 | RRIRHRPPRLPRPRPRPGDSPRP | -0.53
117 | RRIRHRPPRLPRPRPRPKTGPRP | -0.0854
118 | RRIRSRPPRLPRPRPRPLQLPRP | -0.456
119 | RRIRPRPPRLPRPRPRPNMIPRP | -0.531
120 | RRIRERPPRLPRPRPRPRAGPRP | 0.459
121 | RRIRQRPPRLPRPRPRPYACPRP | 0.0958
122 | RRIRHRPPRLPRPRPRPCKIPRP | -0.036
123 | RRIRQRPPRLPRPRPRPTGLPRP | 0.0999
124 | RRIRSRPPRLPRPRPRPTISPRP | -0.655
125 | RRIRERPPRLPRPRPRPVIGPRP | -0.108
